The data set deals with the molecule itself. Kind of data set: cryo-EM structure; single-chain ClpX^∆N (4 µM), ClpP (1.8 µM), ATPγS (2.5 mM) in 20 mM HEPES pH 7.5, 100 mM KCl, 25 mM MgCl2, 5 min at 25°C; equal volume of GFP-G3YG9SENYALAA (20 µM) and ATP (2.5 mM) added; vitrified within 15 s of final mixing.

Results on one protein are retold here after PMC7652416, “Structural basis of ClpXP recognition and unfolding of ssrA-tagged substrates” (eLife, 2020).

B1: E. coli ClpP (enzyme)
chain: not shown
notes: E. coli (strain K12) ClpP, UniProtKB P0A6G7; Double-ring tetradecamer of two heptameric rings; also called ClpP14; ClpP tetradecamer; source: recombinant (plasmid pT7 ClpP), purified as described (Kim et al., 2000; Bell et al., 2019); copies: 14
One may read the stoichiometry N as the number of molecules, sites or subunits per partner or assembly. B1: the “stoichiometry N” value is 14.
